This assay deals with IGF-1 receptor (IGF1R) on DU145 cells and on immortalized human meibomian gland epithelial cells (human) (UniProt P08069). Put plainly: cell-based or functional assay.
Sequence of IGF-1 receptor (IGF1R) on DU145 cells and on immortalized human meibomian gland epithelial cells (human) (P08069 31-1367): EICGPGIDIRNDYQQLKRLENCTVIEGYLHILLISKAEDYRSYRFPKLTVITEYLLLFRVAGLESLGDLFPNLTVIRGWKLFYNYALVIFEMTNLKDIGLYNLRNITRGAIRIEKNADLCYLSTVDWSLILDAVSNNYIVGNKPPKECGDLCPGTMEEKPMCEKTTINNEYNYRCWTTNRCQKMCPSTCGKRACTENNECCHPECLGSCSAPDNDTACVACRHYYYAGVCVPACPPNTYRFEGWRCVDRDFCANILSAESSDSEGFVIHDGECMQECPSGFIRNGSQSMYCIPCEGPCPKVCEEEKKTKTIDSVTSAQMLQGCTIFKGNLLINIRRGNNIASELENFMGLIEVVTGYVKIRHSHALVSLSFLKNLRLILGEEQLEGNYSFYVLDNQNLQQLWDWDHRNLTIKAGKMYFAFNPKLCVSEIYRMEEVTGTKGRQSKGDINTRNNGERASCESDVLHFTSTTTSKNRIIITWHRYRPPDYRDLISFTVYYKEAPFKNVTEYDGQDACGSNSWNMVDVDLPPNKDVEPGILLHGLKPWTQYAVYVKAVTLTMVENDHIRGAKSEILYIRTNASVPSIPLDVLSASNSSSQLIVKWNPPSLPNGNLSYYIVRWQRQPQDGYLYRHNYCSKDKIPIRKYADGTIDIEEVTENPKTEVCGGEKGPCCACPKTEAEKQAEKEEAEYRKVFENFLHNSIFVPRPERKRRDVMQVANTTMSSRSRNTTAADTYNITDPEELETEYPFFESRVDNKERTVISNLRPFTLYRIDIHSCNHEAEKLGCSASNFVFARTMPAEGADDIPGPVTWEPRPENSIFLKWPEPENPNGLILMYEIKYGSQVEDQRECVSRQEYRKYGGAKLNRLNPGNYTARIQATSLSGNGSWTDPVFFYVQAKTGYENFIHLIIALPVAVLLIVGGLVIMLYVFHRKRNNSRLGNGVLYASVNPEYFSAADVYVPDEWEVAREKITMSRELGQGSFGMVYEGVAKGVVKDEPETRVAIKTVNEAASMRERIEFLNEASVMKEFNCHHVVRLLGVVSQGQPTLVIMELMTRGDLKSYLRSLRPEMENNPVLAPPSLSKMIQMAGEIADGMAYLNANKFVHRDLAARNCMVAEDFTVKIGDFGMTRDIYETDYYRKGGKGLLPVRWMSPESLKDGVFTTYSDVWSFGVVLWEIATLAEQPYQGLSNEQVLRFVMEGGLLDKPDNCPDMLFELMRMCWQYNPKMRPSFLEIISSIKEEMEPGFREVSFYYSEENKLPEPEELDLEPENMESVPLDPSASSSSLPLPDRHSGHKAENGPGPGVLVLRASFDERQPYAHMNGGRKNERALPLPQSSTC
In turn, IGF-1 Des1-3 (SEQ ID NO: 8) (ligand) yielded an EC50 of AKT S473 phosphorylation in DU145 cells of 2.3 nM.
In the case of “IGF-1 Ea (SEQ ID NO: 7) (from UniProt P17647 26-130) (ligand)” it was 8.7 nM.
In the case of “IGF-1 E3R (SEQ ID NO: 4) (from UniProt P05019 49-118) (ligand)” it was 4.5 nM.

These data come from US20250376500A1.
